The target of this assay is T1, EsaC (Staphylococcus aureus, UniProt A0A0H2XIK2 1-130).
T1 construct: Predicted soluble 130 amino acid protein; also called EsaC polypeptide; purified EsaC
T1 sequence: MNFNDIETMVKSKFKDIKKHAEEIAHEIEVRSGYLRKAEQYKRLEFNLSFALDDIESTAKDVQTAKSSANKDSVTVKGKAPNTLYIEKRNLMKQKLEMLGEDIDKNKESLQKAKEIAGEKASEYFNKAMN
The assay can be described thus: purified proteins mixed; method not described.

B1: EsaB (other)
chain: MNQHVKVTFDFTNYNYGTYDLAVPAYLPIKNLIALVLDSLDISIFDVNTQIKVMTKGQLLVENDRLIDYQIADGDILKLL
notes: 80 amino acid predicted soluble protein; also called purified EsaB
As to B1, the binding result was “no binding”.

Values taken from patent US20110206676A1 (UNIVERSITY OF CHICAGO, published 2011).
